# Data taken from PMC10312132.
# Like-named read-outs stand apart in the source and are kept apart here.
# T1: RAD52 full-length (Homo sapiens, UniProt P43351 1-418)
# T1 sequence: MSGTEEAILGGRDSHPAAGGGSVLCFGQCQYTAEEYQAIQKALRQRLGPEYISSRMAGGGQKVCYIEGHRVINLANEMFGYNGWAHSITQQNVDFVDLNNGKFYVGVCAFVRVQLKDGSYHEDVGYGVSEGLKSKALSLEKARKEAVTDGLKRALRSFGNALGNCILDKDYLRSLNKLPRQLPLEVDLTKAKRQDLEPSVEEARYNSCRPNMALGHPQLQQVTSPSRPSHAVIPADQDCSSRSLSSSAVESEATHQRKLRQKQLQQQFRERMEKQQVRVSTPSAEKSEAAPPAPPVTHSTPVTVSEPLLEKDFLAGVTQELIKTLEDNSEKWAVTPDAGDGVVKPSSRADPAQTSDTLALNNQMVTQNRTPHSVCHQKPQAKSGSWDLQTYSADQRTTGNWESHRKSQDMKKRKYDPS
# B1: ISE#4 40-mer ssDNA (ssDNA)
# DNA: TGCGGATGGCTTAGAGCTTAATTGCTGAATCTGGTGCTGT
# B2: ISE#1 40-mer ssDNA (ssDNA)
# DNA: ACAGCACCAGATTCAGCAATTAAGCTCTAAGCCATCCGCA
# B3: CA#1 40-mer ssRNA (ssRNA)
# RNA: AAUACCGCAUCAGGAAAUUGUAAGCGUUAAUAUUUUGUUA
# B4: ISE#3 40-mer ssRNA (ssRNA)
# RNA: UGCGGAUGGCUUAGAGCUUAAUUGCUGAAUCUGGUGCUGU
# Columns and labels:
# Assay in all cases: EMSA
# RAD52 full-length [1] = target: T1, RAD52 full-length
# RAD52 full-length [2] = target: T1, RAD52 full-length; remark: listed apart in the source
# RAD52 full-length [3] = target: T1, RAD52 full-length; remark: listed apart in the source
# RAD52 full-length [4] = target: T1, RAD52 full-length; remark: listed apart in the source
binder,measurement,setting,value
B1,binding result,RAD52 full-length [1],binds
B2,binding result,RAD52 full-length [2],binds
B3,binding result,RAD52 full-length [3],binds
B4,binding result,RAD52 full-length [4],binds
